Results from paper PMC7839251.

Target: N-terminal fluorescein labeled ubiquitin E3 ligase WWP2 (FAM-WWP2)
Assay: MST

Kd: 9.6 µM
Substance: ubiquitin E2 conjugating enzyme UbcH5c (from UniProt P61077 1-147)
